Test system: thrombi in the left circumflex (LCX) coronary artery
Experiment: Lysis of coronary artery thrombi by TAFIa inhibitor in conjunction with t-PA
Type: in vivo, dogs
Description: The study was designed with 4 groups (8 dogs/group): • (i) aspirin pre-treatment/vehicle infusion; • (ii) no pre-treatment/vehicle infusion; • (iii) no pre-treatment/TAFIa inhibitor; and • (iv) aspirin pre-treatment/TAFIa inhibitor.
Thirty minutes after initiating vehicle or compound infusion a continuous electrical current was delivered to the lumen of the left circumflex (LCX) coronary artery to cause endothelial damage and stimulate the production of a thrombus. Thrombi were allowed to mature for 1 hour prior to attempting to lyse the thrombus and cause vessel reperfusion with t-PA. A total of 4 bolus injections of t-PA (each 0.45 mg/kg i.v.) were given sequentially at 15 minute intervals. Blood flow through the coronary artery was then monitored for a further 2 hours so as to assess vessel patency. Time to vessel occlusion, and reperfusion were measured and the quantity and quality of blood flow analysed post-vessel re-perfusion. In addition, the effect of treatment on surgical bleeding, activated clotting time, cutaneous bleeding and platelet aggregation was also assessed.

B1: tPA: recombinant tissue plasminogen activator (tPA), a profibrinolytic antithrombotic (protein, UniProt P00750 36-562, looked up)
Tissue-type plasminogen …: SYQVICRDEKTQMIYQQHQSWLRPVLRSNRVEYCWCNSGRAQCHSVPVKSCSEPRCFNGGTCQQALYFSDFVCQCPEGFAGKCCEIDTRATCYEDQGISYRGTWSTAESGAECTNWNSSALAQKPYSGRRPDAIRLGLGNHNYCRNPDRDSKPWCYVFKAGKYSSEFCSTPACSEGNSDCYFGNGSAYRGTHSLTESGASCLPWNSMILIGKVYTAQNPSAQALGLGKHNYCRNPDGDAKPWCHVLKNRRLTWEYCDVPSCSTCGLRQYSQPQFRIKGGLFADIASHPWQAAIFAKHRRSPGERFLCGGILISSCWILSAAHCFQERFPPHHLTVILGRTYRVVPGEEEQKFEVEKYIVHKEFDDDTYDNDIALLQLKSDSSRCAQESSVVRTVCLPPADLQLPDWTECELSGYGKHEALSPFYSERLKEAHVRLYPSSRCTSQHLLNRTVTDNMLCAGDTRSGGPQANLHDACQGDSGGPLVCLNDGRMTLVGIISWGLGCGQKDVPGVYTKVTNYLDWIRDNMRP
injured vessels patent at the end of the experiment (8 dogs/group, all groups received t-PA): 2/8 | blood flow post-reperfusion (FIG. 1) (dogs, t-PA 4 x 0.45 mg/kg i.v. boluses, comparison of treatment groups): superior to the combination of tPA and aspirin

Reference: US6949577B2, “Pharmaceuticals” (Pfizer, Inc., priority 2000, dated 2005)
